The source of these data is US20190134153A1, “IMMUNOMODULATORY EFFECT OF INHALED KINASE INHIBITOR PEPTIDES IN LUNG” (MOERAE MATRIX, INC., priority 2017, published 2019).

Among the targets are CDK7/cyclinH/MAT1(h) (Homo sapiens, UniProt P50613); Plk3(h) (Homo sapiens, UniProt Q9H4B4); MSK2(h) (Homo sapiens, UniProt O75676); PKBγ(h) (Homo sapiens, UniProt Q9Y243); CK2(h) (Homo sapiens, UniProt P68400); WNK3(h) (Homo sapiens, UniProt Q9BYP7).
Holding throughout (experiment): Kinase Profiling Assay
Common to all, as to format: biochemical
Details in all cases: 100 μM

The target in a further assay is T1, Src(1-530)(h) (Homo sapiens, UniProt P12931).
T1 construct: Src(1-530)(h)

The next assay concerns the target T2, NEK11(h) (Homo sapiens, UniProt Q8NG66).
T2 sequence (Q8NG66 1-645): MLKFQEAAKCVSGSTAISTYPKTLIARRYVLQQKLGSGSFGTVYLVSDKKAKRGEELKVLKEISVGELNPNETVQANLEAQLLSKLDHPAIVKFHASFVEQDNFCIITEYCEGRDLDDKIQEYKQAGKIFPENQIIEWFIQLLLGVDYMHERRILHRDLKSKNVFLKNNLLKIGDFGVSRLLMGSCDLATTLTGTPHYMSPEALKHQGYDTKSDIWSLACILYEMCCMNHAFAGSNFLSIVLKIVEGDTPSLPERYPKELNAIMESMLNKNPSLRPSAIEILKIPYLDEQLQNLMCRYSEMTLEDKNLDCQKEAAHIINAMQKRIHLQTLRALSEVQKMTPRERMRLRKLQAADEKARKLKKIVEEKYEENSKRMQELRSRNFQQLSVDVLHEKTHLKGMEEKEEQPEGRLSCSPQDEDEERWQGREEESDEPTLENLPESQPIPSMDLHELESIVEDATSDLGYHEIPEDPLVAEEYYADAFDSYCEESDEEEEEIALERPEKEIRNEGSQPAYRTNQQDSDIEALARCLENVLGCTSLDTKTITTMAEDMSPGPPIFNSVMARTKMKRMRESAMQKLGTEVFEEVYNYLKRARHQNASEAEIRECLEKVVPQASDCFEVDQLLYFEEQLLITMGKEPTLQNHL

A further assay deals with T3, SAPK3(h) (Homo sapiens, UniProt P53778).
T3 sequence (P53778 1-367): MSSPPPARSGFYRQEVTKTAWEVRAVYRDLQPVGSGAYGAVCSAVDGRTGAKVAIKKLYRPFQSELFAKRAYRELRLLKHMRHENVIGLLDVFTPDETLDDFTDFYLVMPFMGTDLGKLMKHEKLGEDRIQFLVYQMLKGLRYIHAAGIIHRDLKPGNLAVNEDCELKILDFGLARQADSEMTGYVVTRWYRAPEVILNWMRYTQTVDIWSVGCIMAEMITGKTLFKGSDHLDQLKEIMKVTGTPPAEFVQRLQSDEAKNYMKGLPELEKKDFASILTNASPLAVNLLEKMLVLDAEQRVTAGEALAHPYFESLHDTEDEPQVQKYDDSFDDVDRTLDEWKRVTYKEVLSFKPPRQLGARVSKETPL

The target of another assay is T4, BrSK1(h) (Homo sapiens, UniProt Q8TDC3).
T4 sequence (Q8TDC3 1-778): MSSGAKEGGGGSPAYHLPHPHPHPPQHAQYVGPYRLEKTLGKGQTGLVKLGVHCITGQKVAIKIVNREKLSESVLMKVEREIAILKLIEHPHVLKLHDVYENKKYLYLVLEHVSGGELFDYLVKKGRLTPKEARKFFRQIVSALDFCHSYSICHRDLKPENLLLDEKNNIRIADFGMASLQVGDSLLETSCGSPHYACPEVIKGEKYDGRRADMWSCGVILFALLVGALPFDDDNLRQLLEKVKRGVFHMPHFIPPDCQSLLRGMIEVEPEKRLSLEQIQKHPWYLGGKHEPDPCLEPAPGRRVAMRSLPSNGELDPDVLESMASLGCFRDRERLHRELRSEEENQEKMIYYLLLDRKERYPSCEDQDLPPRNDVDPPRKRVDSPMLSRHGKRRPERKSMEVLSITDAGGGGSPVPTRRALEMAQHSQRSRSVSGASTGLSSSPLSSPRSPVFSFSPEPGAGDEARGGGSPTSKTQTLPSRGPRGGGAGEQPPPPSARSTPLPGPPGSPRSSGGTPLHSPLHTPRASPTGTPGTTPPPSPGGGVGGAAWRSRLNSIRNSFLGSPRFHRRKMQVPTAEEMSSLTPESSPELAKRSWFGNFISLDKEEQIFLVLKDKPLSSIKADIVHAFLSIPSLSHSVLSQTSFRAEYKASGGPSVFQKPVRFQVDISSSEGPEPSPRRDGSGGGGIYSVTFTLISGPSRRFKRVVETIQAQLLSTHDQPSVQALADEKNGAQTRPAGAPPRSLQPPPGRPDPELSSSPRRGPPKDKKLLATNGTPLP

Chain of CDK7/cyclinH/MAT1(h) (P50613 whole entry): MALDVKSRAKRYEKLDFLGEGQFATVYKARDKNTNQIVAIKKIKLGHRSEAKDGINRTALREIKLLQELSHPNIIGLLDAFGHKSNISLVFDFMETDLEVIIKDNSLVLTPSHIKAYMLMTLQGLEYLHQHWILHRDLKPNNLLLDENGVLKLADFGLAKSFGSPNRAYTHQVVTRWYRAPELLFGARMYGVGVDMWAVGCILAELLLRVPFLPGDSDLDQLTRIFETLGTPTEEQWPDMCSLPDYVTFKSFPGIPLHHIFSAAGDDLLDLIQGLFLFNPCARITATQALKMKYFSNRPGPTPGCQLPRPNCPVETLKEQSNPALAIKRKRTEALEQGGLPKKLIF
Chain of CDK7/cyclinH/MAT1(h) (P51946 whole entry partner): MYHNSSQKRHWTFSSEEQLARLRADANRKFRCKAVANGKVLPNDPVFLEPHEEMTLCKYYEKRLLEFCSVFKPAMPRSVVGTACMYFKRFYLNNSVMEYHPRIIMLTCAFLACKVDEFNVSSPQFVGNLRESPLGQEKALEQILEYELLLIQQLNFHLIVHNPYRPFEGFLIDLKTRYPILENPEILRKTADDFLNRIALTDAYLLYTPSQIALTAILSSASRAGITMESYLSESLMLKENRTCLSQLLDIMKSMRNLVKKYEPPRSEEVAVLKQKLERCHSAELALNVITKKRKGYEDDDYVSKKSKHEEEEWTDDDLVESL
Chain of CDK7/cyclinH/MAT1(h) (P51948 whole entry partner): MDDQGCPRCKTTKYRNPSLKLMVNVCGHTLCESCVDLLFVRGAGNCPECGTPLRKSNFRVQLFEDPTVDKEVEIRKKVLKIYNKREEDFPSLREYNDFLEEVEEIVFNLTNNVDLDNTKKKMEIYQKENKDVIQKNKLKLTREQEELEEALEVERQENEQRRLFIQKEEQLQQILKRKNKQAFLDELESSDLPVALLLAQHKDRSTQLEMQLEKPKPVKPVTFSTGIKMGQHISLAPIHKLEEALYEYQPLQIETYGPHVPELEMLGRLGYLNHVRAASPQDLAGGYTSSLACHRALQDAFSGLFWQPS
Chain of Plk3(h) (Q9H4B4 whole entry): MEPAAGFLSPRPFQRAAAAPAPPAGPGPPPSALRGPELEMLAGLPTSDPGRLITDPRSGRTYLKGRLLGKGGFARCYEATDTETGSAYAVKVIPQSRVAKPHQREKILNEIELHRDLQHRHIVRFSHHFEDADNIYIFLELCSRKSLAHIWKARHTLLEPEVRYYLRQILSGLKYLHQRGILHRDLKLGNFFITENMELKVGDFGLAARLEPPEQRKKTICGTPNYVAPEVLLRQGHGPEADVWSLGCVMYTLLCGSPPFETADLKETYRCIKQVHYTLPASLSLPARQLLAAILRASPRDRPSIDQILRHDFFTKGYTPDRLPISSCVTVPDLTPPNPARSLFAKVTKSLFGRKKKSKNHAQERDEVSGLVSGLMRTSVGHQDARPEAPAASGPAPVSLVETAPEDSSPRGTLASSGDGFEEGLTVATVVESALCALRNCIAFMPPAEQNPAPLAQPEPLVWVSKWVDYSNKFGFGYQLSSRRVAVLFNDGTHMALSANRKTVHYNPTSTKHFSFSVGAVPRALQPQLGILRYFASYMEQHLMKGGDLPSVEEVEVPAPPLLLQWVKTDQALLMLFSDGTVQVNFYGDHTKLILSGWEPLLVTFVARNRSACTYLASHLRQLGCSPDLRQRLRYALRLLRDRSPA
Chain of CK2(h) (P68400 whole entry): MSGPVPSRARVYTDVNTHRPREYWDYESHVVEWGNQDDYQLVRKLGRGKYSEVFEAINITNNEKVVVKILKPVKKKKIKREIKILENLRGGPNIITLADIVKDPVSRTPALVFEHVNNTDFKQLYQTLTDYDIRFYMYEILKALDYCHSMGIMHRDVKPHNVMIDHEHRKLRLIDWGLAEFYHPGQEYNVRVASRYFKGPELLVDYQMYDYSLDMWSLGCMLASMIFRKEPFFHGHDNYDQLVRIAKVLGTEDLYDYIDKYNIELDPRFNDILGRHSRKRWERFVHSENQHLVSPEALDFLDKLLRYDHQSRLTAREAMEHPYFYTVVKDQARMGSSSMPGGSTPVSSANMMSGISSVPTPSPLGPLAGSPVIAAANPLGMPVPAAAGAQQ
Chain of CK2(h) (P67870 whole entry partner): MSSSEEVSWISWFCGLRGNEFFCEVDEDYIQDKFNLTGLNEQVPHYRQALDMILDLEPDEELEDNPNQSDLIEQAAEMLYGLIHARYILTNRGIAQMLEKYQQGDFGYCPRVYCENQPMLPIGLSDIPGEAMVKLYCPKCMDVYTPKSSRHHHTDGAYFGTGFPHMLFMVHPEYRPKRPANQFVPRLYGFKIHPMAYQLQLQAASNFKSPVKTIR
Chain of PKBγ(h) (Q9Y243 whole entry): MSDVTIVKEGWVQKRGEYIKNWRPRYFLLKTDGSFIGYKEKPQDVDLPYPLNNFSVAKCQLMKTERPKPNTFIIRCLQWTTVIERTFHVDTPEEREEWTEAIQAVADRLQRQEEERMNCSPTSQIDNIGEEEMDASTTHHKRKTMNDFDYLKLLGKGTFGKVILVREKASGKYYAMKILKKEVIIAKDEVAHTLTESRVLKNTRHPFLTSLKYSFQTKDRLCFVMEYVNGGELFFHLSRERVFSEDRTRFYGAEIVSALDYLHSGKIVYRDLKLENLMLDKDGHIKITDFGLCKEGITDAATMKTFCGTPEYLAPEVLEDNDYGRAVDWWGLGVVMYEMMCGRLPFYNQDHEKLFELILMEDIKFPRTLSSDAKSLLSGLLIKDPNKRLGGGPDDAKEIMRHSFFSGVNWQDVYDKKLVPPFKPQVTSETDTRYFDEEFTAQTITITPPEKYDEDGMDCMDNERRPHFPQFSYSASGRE
Chain of MSK2(h) (O75676 whole entry): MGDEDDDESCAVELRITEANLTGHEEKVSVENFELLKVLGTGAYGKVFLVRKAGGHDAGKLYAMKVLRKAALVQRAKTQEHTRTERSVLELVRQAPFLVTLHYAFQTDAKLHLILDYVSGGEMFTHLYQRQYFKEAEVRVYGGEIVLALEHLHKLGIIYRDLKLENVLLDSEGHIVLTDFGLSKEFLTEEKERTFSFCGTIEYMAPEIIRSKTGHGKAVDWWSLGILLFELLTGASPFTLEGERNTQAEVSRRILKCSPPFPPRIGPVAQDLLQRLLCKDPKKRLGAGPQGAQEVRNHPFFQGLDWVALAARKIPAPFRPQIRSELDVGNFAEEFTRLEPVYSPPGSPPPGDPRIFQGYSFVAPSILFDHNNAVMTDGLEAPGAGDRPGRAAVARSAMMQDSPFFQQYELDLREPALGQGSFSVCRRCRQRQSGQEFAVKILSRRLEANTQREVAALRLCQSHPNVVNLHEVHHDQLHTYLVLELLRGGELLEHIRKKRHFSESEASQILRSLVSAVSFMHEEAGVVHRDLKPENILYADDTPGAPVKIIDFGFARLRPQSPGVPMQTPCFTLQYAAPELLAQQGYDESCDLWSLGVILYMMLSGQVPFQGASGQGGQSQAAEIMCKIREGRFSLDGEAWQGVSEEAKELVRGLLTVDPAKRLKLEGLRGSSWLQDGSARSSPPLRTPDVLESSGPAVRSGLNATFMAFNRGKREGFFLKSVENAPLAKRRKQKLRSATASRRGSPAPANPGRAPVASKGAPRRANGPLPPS

For FAKLAARLYRKALARQLGVAA [MMI-0300], the “% activity” value was 65% in the assay with CDK7/cyclinH/MAT1(h); 127% with Plk3(h); 56% in the assay with MSK2(h); 23% with Src(1-530)(h); 53% with NEK11(h); 20% in the assay with PKBγ(h). Also, the “% activity” value is 84% in the assay with SAPK3(h), 67% in the assay with BrSK1(h), 90% with CK2(h) and 77% in the assay with WNK3(h).

As for YARAAARQARAKALNRQLGVA [MMI-0200], the “% activity” value with CDK7/cyclinH/MAT1(h) was 67%; in the assay with MSK2(h), 88%; in the assay with Src(1-530)(h), 75%; with NEK11(h), 95%; with SAPK3(h) it was 97%; with BrSK1(h) it was 93%. For the same sequence, the “% activity” value with CK2(h) stood at 83%; with WNK3(h), 97%.

As for KAFAKLAARLYRKALARQLGVAA [MMI-0400], the “% activity” value stood at 47% with CDK7/cyclinH/MAT1(h); 129% in the assay with Plk3(h); 52% with MSK2(h); 19% with Src(1-530)(h); 33% with NEK11(h); 41% with PKBγ(h). Moreover, the “% activity” value with SAPK3(h) is given as 79%; with BrSK1(h), 76%; with CK2(h), 101%; in the assay with WNK3(h) it was 74%.

Consider HRRIKAWLKKIKALARQLGVAA [MMI-0500], for which the “% activity” value in the assay with CDK7/cyclinH/MAT1(h) is reported as 15%; with Plk3(h), 122%; with MSK2(h) it was 14%; with Src(1-530)(h), 21%; with NEK11(h), 2%; with PKBγ(h), 20%. The “% activity” value worked out at 24% with SAPK3(h), 72% with BrSK1(h), 93% in the assay with CK2(h) and 9% with WNK3(h).
